Data on 18 molecules can be found in patent US20110307974A1.

The assay has as its target T1, APC10 (AT2G18290) fused at its N-terminus with the traditional TAP tag or with the GS tag (Arabidopsis thaliana) (UniProt Q9ZPW2).
T1 sequence: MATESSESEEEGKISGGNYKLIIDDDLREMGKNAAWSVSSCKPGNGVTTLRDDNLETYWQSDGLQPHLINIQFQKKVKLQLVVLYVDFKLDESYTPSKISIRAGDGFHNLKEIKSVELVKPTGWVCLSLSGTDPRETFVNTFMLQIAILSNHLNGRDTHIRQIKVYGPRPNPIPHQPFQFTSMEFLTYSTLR
Put plainly: TAP purification with tagged APC10 as bait from Arabidopsis cell suspension culture, MALDI-TOF/TOF MS identification.

“CDC27a (AT3G16320) (from UniProt Q06AN9 1-717)” returned a Found/6 exp (of 6 experiments) of 4. The same measure for “APC7 (AT2G39090) (from UniProt Q8VY89 1-558)”: 6; for “UVI4-like (AT3G57860) (from UniProt Q9M2R1 1-243)”: 2; for “phosphoprotein-related (ELF8) (AT2G06210) (from UniProt B5X0I6 2-1091)”: 1.

“eukaryotic translation initiation factor 3 subunit 8 (AT3G56150) (from UniProt O49160 1-900)”: the Found/6 exp (of 6 experiments) came to 1. As to “APC5 (AT1G06590) (from UniProt Q8H1U4 1-916)”, the Found/6 exp (of 6 experiments) came out at 6. The same measure for “APC8 (AT3G48150) (from UniProt Q9STS3 1-579)”: 6; for “CCS52B (AT5G13840) (from UniProt Q8LPL5 1-481)”: 1. In turn, “APC1 (AT5G05560) (from UniProt Q9FFF9 1-1678)” showed a Found/6 exp (of 6 experiments) of 6. “CDKA; 1 (AT3G48750) (from UniProt P24100 1-294) (enzyme)” came in with a Found/6 exp (of 6 experiments) of 1.

Regarding “expressed protein (AT4G25550) (from UniProt Q8GXS3 1-200)”, the Found/6 exp (of 6 experiments) came out at 2. Turning to “CDC16 (AT1G78770) (from UniProt B3DNN5 1-543)”, the Found/6 exp (of 6 experiments) came out at 6.

On to “UVI4 (AT2G42260) (from UniProt O48533 1-259)”, for which the Found/6 exp (of 6 experiments) was 3. Molecule “APC4 (AT4G21530) (from UniProt O65418 1-777)” had a Found/6 exp (of 6 experiments) of 6.

Take “APC2 (AT2G04660) (from UniProt Q8H1U5 1-865)”: the Found/6 exp (of 6 experiments) was 3. The molecule “RNase L inhibitor protein, putative (AT4G19210) (from UniProt Q8LPJ4 1-605)” showed a Found/6 exp (of 6 experiments) of 2. The same measure for “CDC27b (AT2G20000) (from UniProt Q8LGU6 1-744)”: 6.

B1: SAMBA (AT1G32310) (protein)
chain: MNGASPAHSLVSTTAVAGGGGSSGAAAGLDDFHFPPDIPSMQERKDEAMRVLKADLMTELDKEVKSLEEDSWMFEGPRSRIHLISRRGNFLKKGGEVKLW
On to B1, for which the Found/6 exp (of 6 experiments) amounted to 4.
